From publication PMC9098882
pKd: −log10 of the molar value.

Legend:
[1] = target: Ozz–EloBC subcomplex (human) (UniProt Q9BR09); test: AUC; sedimentation velocity, isotherm of signal-weighted-average s (3 to 7 S) of Ozz–EloBC at 1.8 to 13.3 μM; reversible monomer–dimer self-association model (dimer to monomers of the 1:1:1 complex), SEDPHAT; same buffer, 20 °C
[2] = target: Ozz–EloBC subcomplex (human) (UniProt Q9BR09); test: AUC; sedimentation velocity, 50,000 rpm, 20 °C, interference optics; 10 mM sodium phosphate, 1.8 mM potassium phosphate pH 7.2, 137 mM NaCl, 0.27 mM KCl; c(s) and two-dimensional c(s,f/f0) analysis of the same data; co-purified subcomplexes alone (Ozz–EloBC 0.35 or 1.00 mg/ml, Cul5–Rbx1 0.21 mg/ml) and their 1:1 mixture (0.75 mg/ml)
[3] = target: CRL5^Ozz, reconstituted five-component complex (Ozz–EloBC + Cul5–Rbx1) (human) (UniProt Q9BR09); test: SEC; purified Ozz–EloBC and Cul5–Rbx1 mixed 1:1; Superose 6 10/300GL, 50 mM Tris pH 7.6, 150 mM NaCl, 0.3 ml/min; fractions on SDS gels stained with SYPRO Ruby
[4] = target: CRL5^Ozz, reconstituted five-component complex (Ozz–EloBC + Cul5–Rbx1) (human) (UniProt Q9BR09); test: co-sedimentation; 15–45% glycerol gradient ultracentrifugation with micro-fractionation; 20 mM Tris–HCl pH 7.6, 150 mM NaCl; 55,000 r.p.m., 8 h (also 12 h), 4 °C; fractions on SDS gels stained with SYPRO Ruby, densitometry
[5] = target: CRL5^Ozz, reconstituted five-component complex (Ozz–EloBC + Cul5–Rbx1) (human) (UniProt Q9BR09); test: AUC; sedimentation velocity, 50,000 rpm, 20 °C, interference optics; 10 mM sodium phosphate, 1.8 mM potassium phosphate pH 7.2, 137 mM NaCl, 0.27 mM KCl; c(s) and two-dimensional c(s,f/f0) analysis of the same data; co-purified subcomplexes alone (Ozz–EloBC 0.35 or 1.00 mg/ml, Cul5–Rbx1 0.21 mg/ml) and their 1:1 mixture (0.75 mg/ml)

Sequence of Cul5–Rbx1 subcomplex (Q93034 whole entry): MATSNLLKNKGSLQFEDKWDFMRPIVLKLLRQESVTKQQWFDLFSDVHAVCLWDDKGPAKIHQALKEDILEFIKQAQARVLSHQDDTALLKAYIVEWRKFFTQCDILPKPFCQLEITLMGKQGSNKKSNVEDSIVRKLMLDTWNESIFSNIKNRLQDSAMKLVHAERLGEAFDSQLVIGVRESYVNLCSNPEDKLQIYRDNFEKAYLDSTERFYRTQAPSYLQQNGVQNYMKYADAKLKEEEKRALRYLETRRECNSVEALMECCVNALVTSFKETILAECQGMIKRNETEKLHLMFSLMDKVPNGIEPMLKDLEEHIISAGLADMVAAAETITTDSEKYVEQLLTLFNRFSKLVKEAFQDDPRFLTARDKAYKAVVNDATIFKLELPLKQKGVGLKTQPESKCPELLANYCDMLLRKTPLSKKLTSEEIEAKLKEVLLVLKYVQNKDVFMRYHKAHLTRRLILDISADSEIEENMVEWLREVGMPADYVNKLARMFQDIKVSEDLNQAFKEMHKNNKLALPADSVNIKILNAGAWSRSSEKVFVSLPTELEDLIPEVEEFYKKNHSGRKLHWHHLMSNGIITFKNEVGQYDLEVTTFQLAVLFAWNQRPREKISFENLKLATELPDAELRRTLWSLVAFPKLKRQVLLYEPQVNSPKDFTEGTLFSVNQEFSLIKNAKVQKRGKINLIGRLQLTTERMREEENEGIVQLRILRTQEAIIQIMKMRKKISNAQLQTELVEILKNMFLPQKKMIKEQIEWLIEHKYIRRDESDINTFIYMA
Sequence of Cul5–Rbx1 subcomplex (P62877 whole entry): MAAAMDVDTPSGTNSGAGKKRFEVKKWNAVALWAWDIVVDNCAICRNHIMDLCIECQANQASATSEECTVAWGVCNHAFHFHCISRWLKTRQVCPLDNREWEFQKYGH

## Ozz–EloBC subcomplex (from UniProt Q9BR09 1-285; Q15370 1-118; Q15369 1-112)
[1]
  pKd: 6.15
[2]
  percent of total protein in the dimer peak, c(s): 53%
  percent of total protein in the dimer peak, c(s,f/f0): 52%
  stoichiometry N: 2

## Cul5–Rbx1 subcomplex (from UniProt Q93034 1-780; P62877 1-108)
[2]
  percent of total protein in the peak of the 1:1:1:1:1 complex, c(s): 55%
  percent of total protein in the peak of the 1:1:1:1:1 complex, c(s,f/f0): 48%
  stoichiometry N: 1

## CRL5^Ozz, reconstituted five-component complex (Ozz–EloBC + Cul5–Rbx1) (from UniProt Q9BR09 1-285; Q15370 1-118; Q15369 1-112; Q93034 1-780; P62877 1-108)
[3]
  stoichiometry N: 2
[4]
  stoichiometry N: 2
[5]
  percent of total protein in the dimer peak, c(s): 5%
  percent of total protein in the dimer peak, c(s,f/f0): 8%
  stoichiometry N: 2
